According to patent US20090181003:

What was measured:
[1] = tested on: recombinant S6K1 (highly purified)
PDK1 (recombinant) = tested on: T1, PDK1 (recombinant)
T1 sequence (O15530 1-556, species assumed, looked up): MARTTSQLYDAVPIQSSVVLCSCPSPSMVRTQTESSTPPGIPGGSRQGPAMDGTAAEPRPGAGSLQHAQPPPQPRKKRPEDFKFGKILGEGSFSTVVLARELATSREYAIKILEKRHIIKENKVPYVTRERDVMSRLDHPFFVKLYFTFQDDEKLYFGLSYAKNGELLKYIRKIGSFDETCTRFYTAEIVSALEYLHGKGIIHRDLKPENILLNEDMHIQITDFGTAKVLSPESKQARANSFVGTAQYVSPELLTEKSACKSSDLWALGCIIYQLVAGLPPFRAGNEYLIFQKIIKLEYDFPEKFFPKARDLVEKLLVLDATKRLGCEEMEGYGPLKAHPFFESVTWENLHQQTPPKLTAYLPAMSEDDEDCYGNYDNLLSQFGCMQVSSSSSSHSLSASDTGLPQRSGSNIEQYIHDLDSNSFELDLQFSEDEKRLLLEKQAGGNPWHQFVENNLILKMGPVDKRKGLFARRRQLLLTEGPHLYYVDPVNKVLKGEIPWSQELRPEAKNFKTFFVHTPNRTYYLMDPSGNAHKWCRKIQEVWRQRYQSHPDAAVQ

[2] = tested on: PI3-K (p85a/p110a complex)
[3] = tested on: recombinant S6K2 (highly purified)
Chain of recombinant S6K2 (highly purified) (chain, as listed by the source): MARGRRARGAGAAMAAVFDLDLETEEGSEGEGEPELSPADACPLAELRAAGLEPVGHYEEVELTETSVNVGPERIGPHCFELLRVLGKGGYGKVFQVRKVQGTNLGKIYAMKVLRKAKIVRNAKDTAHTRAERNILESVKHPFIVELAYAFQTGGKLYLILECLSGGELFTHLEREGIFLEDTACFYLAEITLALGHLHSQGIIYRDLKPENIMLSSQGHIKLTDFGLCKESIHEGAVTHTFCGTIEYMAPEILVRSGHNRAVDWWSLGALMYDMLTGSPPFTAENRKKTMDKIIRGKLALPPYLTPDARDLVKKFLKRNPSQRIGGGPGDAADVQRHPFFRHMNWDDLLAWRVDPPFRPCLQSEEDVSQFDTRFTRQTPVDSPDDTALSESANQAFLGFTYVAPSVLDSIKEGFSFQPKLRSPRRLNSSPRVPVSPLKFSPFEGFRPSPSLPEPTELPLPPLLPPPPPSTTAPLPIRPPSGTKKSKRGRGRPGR

Chain of PKB/Akt (recombinant) (P31749 whole entry): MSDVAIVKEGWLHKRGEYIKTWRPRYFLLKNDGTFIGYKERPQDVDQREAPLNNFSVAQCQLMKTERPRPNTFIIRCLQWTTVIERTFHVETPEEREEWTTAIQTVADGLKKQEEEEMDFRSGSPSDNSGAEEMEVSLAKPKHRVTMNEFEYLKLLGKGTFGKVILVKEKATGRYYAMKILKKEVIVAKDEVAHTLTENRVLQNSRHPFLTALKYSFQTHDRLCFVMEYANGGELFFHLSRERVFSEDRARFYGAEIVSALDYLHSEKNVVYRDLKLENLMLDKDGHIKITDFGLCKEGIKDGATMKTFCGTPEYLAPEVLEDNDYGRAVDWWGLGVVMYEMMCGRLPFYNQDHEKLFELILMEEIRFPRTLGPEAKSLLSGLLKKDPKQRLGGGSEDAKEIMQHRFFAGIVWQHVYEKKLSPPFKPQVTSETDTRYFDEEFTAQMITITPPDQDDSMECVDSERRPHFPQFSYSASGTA

For full-length p300, the “site of in vitro acetylation (MALDI tandem mass spectrometry of tryptic peptide 509Q-R522)” value [1] was “this peptide was acetylated on the Lysine 516”, the “in vitro acetylation by immunoprecipitated full-length p300” value (PDK1 (recombinant)) was “no acetylation is observed for PKB/Akt, PDK1, PI3-K (p85a/p110a complex) under conditions used” and the “in vitro acetylation by immunoprecipitated full-length p300” value (PKB/Akt (recombinant)) was “no acetylation is observed for PKB/Akt, PDK1, PI3-K (p85a/p110a complex) under conditions used”. For the same substance, the “in vitro acetylation by immunoprecipitated full-length p300” value [2] was “no acetylation is observed for PKB/Akt, PDK1, PI3-K (p85a/p110a complex) under conditions used”, the “in vitro acetylation by immunoprecipitated full-length p300” value (PKCa (recombinant)) was “We detected weak, but reproducible acetylation of PKCa” and the “in vitro acetylation by immunoprecipitated full-length p300” value [3] was “S6K2 is acetylated in the presence of p300 and AcCoA”. The “site of in vitro acetylation (MALDI mass spectrometry of Arg-C peptide 297 to 310)” value [3] was “contains a lysine at position 2 (residue 298 in S6K2). This peptide was sequenced and the acetylated lysine was confirmed (data not shown)”.
